Experimental data reported in publication PMC5787697, “Transcriptome-wide identification of the RNA-binding landscape of the chromatin-associated protein PARP1 reveals functions in RNA biogenesis”.

Tests used:
PARP1-ΔBRCT [1] = biological target: T1, PARP1-ΔBRCT (human, UniProt P09874 1-1014, del367-494); assay: EMSA; Table 2 value not in material; 25 mM Tris pH 7.5, 75 mM NaCl, 50 mM arginine, 0.1 mM TCEP, 0.1 ug/ul BSA, room temperature 30 min; 0.05 uM probe, 0-2.5 uM protein; native 10% PAGE in TBE; details: protein: recombinant; tags: His; chain copies: 2; label: 5'-32P; single strand
PARP1-ΔZn3 [2] = biological target: T2, PARP1-ΔZn3 (human, UniProt P09874 1-1014, del232-374); assay: EMSA; lowest affinity, within 2-3 fold of FL; Table 2 value not in material; 25 mM Tris pH 7.5, 75 mM NaCl, 50 mM arginine, 0.1 mM TCEP, 0.1 ug/ul BSA, room temperature 30 min; 0.05 uM probe, 0-2.5 uM protein; native 10% PAGE in TBE; details: protein: recombinant; tags: His; chain copies: 2; label: 5'-32P; single strand
PARP1-ΔWGR [3] = biological target: T3, PARP1-ΔWGR (human, UniProt P09874 1-1014, del518-654); assay: EMSA; affinity not significantly changed from FL; Table 2 value not in material; 25 mM Tris pH 7.5, 75 mM NaCl, 50 mM arginine, 0.1 mM TCEP, 0.1 ug/ul BSA, room temperature 30 min; 0.05 uM probe, 0-2.5 uM protein; native 10% PAGE in TBE; details: protein: recombinant; tags: His; chain copies: 2; label: 5'-32P; single strand
PARP1-ΔBRCT [4] = biological target: T1, PARP1-ΔBRCT; assay: EMSA; monomer-equivalent K, n=1.94±0.11; 25 mM Tris pH 7.5, 75 mM NaCl, 50 mM arginine, 0.1 mM TCEP, 0.1 ug/ul BSA, room temperature 30 min; 0.05 uM probe, 0-2.5 uM protein; native 10% PAGE in TBE; details: protein: recombinant; tags: His; chain copies: 2; label: 32P; single strand
PARP1-ΔWGR [5] = biological target: T3, PARP1-ΔWGR; assay: EMSA; monomer-equivalent K, n=2.13±0.07; 25 mM Tris pH 7.5, 75 mM NaCl, 50 mM arginine, 0.1 mM TCEP, 0.1 ug/ul BSA, room temperature 30 min; 0.05 uM probe, 0-2.5 uM protein; native 10% PAGE in TBE; details: protein: recombinant; tags: His; chain copies: 2; label: 32P; single strand
PARP1-ΔZn3 [6] = biological target: T2, PARP1-ΔZn3; assay: EMSA; monomer-equivalent K, n=2.17±0.12; 25 mM Tris pH 7.5, 75 mM NaCl, 50 mM arginine, 0.1 mM TCEP, 0.1 ug/ul BSA, room temperature 30 min; 0.05 uM probe, 0-2.5 uM protein; native 10% PAGE in TBE; details: protein: recombinant; tags: His; chain copies: 2; label: 32P; single strand
PARP1-ΔZn3 [7] = biological target: T2, PARP1-ΔZn3; assay: competition EMSA; vs N1 in same reaction; 25 mM Tris pH 7.5, 75 mM NaCl, 50 mM arginine, 0.1 mM TCEP, 0.1 ug/ul BSA, room temperature 30 min; 0.05 uM probe, 0-2.5 uM protein; native 10% PAGE in TBE; details: protein: recombinant; tags: His; label: 32P; single strand
PARP1-ΔWGR [8] = biological target: T3, PARP1-ΔWGR; assay: as above; details: protein: recombinant; tags: His; label: 32P; single strand
PARP1-ΔBRCT [9] = biological target: T1, PARP1-ΔBRCT; assay: as above; details: protein: recombinant; tags: His; label: 32P; single strand
PARP1-ΔWGR [10] = biological target: T3, PARP1-ΔWGR; assay: EMSA; monomer-equivalent K, n=1.04±0.11; 25 mM Tris pH 7.5, 75 mM NaCl, 50 mM arginine, 0.1 mM TCEP, 0.1 ug/ul BSA, room temperature 30 min; 0.05 uM probe, 0-2.5 uM protein; native 10% PAGE in TBE; details: protein: recombinant; tags: His; chain copies: 2; label: 32P; single strand
PARP1-ΔZn3 [11] = biological target: T2, PARP1-ΔZn3; assay: EMSA; monomer-equivalent K, n=1.41±0.08; 25 mM Tris pH 7.5, 75 mM NaCl, 50 mM arginine, 0.1 mM TCEP, 0.1 ug/ul BSA, room temperature 30 min; 0.05 uM probe, 0-2.5 uM protein; native 10% PAGE in TBE; details: protein: recombinant; tags: His; chain copies: 2; label: 32P; single strand
PARP1-ΔBRCT [12] = biological target: T1, PARP1-ΔBRCT; assay: EMSA; monomer-equivalent K, n=2.23±0.10; 25 mM Tris pH 7.5, 75 mM NaCl, 50 mM arginine, 0.1 mM TCEP, 0.1 ug/ul BSA, room temperature 30 min; 0.05 uM probe, 0-2.5 uM protein; native 10% PAGE in TBE; details: protein: recombinant; tags: His; chain copies: 2; label: 32P; single strand

T1 sequence (P09874 other isoform, or with tags, fused parts or gaps del367-494 | mutant): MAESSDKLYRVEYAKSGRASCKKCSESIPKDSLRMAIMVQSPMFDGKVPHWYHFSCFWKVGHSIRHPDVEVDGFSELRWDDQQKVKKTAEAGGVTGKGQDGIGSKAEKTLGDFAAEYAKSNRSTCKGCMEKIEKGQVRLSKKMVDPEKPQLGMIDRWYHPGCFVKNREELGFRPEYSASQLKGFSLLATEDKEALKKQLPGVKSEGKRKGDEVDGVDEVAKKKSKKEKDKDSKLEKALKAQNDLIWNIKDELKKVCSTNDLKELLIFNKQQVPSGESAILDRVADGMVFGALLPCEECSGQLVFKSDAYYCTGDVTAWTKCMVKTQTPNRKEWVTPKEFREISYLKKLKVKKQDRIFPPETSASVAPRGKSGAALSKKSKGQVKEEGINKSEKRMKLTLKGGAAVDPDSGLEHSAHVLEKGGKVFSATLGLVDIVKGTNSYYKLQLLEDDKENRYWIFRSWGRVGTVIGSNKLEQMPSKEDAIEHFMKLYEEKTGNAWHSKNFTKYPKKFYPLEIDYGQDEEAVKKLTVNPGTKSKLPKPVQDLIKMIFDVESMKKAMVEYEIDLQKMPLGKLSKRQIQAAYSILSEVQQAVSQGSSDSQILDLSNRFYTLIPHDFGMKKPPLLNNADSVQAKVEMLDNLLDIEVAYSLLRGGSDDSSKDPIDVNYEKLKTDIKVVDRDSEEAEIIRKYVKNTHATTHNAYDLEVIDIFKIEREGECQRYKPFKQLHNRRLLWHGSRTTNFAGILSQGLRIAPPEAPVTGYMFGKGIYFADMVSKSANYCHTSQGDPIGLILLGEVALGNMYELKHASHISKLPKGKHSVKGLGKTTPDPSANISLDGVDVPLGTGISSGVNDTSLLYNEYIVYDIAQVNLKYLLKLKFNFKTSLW
T3 sequence (P09874 other isoform, or with tags, fused parts or gaps del518-654 | mutant): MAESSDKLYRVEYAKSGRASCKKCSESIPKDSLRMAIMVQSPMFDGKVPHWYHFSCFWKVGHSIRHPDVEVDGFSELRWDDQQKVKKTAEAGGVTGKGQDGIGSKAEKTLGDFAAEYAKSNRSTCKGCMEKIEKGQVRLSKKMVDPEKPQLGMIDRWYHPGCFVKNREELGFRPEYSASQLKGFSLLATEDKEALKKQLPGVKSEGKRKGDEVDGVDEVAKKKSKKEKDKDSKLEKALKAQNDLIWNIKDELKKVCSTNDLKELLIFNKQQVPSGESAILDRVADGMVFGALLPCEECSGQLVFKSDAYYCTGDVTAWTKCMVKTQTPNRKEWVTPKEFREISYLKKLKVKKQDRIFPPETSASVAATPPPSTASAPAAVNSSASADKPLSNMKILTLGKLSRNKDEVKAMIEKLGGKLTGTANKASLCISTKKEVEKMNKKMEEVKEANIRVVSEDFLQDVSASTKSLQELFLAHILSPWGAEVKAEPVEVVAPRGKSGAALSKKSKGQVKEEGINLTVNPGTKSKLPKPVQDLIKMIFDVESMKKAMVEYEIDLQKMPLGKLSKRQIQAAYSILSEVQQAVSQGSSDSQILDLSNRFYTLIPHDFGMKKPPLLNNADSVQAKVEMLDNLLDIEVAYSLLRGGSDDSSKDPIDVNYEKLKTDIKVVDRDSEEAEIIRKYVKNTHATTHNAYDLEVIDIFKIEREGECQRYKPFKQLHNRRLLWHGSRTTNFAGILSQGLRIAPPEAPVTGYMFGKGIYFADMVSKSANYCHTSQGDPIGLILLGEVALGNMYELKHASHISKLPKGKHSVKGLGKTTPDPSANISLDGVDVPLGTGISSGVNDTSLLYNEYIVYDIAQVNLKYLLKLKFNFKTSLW
T2 sequence (P09874 other isoform, or with tags, fused parts or gaps del232-374 | mutant): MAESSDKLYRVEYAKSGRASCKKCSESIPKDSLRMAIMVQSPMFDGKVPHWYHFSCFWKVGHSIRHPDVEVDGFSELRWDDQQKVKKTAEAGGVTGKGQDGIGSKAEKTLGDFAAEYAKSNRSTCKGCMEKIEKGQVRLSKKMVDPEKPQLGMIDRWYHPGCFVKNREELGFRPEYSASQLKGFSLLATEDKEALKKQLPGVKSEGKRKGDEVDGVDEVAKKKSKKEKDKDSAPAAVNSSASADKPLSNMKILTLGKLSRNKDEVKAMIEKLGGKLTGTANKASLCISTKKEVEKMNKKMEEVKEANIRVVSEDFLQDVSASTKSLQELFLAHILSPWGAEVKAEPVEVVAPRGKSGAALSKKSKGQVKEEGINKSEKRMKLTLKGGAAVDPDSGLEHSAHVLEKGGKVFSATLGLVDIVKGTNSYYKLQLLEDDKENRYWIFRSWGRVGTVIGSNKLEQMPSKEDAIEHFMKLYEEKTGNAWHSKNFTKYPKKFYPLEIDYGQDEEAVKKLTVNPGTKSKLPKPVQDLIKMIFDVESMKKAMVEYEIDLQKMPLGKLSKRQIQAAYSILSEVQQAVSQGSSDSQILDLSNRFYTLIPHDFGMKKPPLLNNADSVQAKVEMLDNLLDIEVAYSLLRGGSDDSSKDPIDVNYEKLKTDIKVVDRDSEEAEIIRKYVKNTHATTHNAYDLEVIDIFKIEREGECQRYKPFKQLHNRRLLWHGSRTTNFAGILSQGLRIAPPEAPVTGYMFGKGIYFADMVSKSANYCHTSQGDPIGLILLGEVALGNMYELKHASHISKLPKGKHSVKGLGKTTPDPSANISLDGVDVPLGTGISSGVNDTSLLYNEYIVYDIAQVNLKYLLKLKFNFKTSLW

B1: 19-mer ssRNA (ssRNA)
RNA: UAGGCACCGGCAUCUUGAC
PARP1-ΔBRCT [1]
  binding result: binds
PARP1-ΔZn3 [2]
  binding result: binds
PARP1-ΔWGR [3]
  binding result: binds

B2: 20-mer ssRNA (ssRNA)
RNA: CCGUACGCGGGUUUAAACGA
PARP1-ΔBRCT [4]
  Ka: 1.19e+06 M⁻¹
PARP1-ΔWGR [5]
  Ka: 1.46e+06 M⁻¹
PARP1-ΔZn3 [6]
  Ka: 1.3e+06 M⁻¹

B3: 19-mer ssDNA (ssDNA)
DNA: TAGGCACCGGCATCTTGAC
PARP1-ΔZn3 [7]
  binding signal: 23.1 ± 5.2 KDNA/KRNA
PARP1-ΔWGR [8]
  binding signal: 26.5 ± 2.4 KDNA/KRNA
PARP1-ΔBRCT [9]
  binding signal: 42.3 ± 1.2 KDNA/KRNA

B4: 24-mer ssRNA (ssRNA)
RNA: CGUACGCGGAAUAGUUUAAACUGU
PARP1-ΔWGR [10]
  Ka: 3.4e+06 M⁻¹
PARP1-ΔZn3 [11]
  Ka: 1.86e+06 M⁻¹
PARP1-ΔBRCT [12]
  Ka: 2.38e+06 M⁻¹
